From patent US20250195556A1, “COMPOSITIONS, KITS, AND METHODS TO INDUCE ACQUIRED CYTORESISTANCE USING STRESS PROTEIN INDUCERS” (FRED HUTCHINSON CANCER RESEARCH CENTER, priority 2014, published 2025)
Several values for one entry are separate records, joined by “and”; a condition that tells them apart may be missing. Identical values can stand only once.

What was measured:
[1] = tested on: HO-1; experiment: Renal cortical HO-1 mRNA (RT-PCR) and protein (ELISA) after IV myoglobin, SnPP or both (Example 1); format: in vivo, mice
From the text: The Glycerol Model of AKI. This is a widely used model of rhabdomyolysis-induced AKI that has been employed worldwide for 50 years. The model was used to test whether prophylactic interventions confer protection against AKI. Basically, the protocol is as follows: Male CD-1 mice (35-45 grams), obtained from Charles River Laboratories, Wilmington, M A were studied. Mice were maintained under standard vivarium conditions and generally housed for 1-3 weeks prior to study. The mice were placed in a cylindrical restraining cage, and then were given a tail vein injection of the test substances (see below) or test substance vehicle. The mice were then returned to their cages. Eighteen hours (hrs) later, the mice were briefly anesthetized by isoflurane inhalation, and given an intramuscular injection of hypertonic (50%) glycerol in a dose of 9 ml/Kg body weight. The dose is divided in two, with half injected into the muscle of each of the hind limbs. The mice were then returned to their cages. Eighteen hrs later, the mice were deeply anesthetized with pentobarbital (50-100 mg/Kg), the abdominal cavity was opened through a midline abdominal incision, a blood sample was obtained from the abdominal vena cava and the kidneys were resected. A kidney cross section was obtained and fixed in formalin for subsequent histologic analysis. The terminal blood samples were analyzed for BUN and creatinine, using commercially available assay kits. The remaining kidney tissue was subjected to cortical dissection, and the cortical tissues were then extracted for protein and RNA. The protein samples were saved for analysis of HO-1 levels, and the RNA samples were subjected to RT-PCR to quantify HO-1 mRNA as well as levels of other stress gene mRNAs (e.g. NGAL, haptoglobin, hemopexin, hepicidin).
Myoglobin+SnPP: To 5 mg of dry myoglobin was added 0.9 ml of PBS+0.1 ml of a stock SnPP solution (50 umole/ml). The resulting final concentrations were 5 mg/ml myoglobin+5 umoles/ml of SnPP. The tail vein was injected with 200 μl of this solution, which equals 1 mg myoglobin+1 umole SnPP. […]
Four hr post myoglobin vs myoglobin+SnPP vs SnPP alone experiments. To confirm that the myoglobin+SnPP has a synergistic effect in inducing HO-1 mRNA and HO-1 protein levels, each of the above combinations have been administered alone via tail vein injection. Four hrs later, the mice were sacrificed as noted above and the kidneys were harvested for assessment of HO-1 mRNA and protein levels. For additional information regarding methods, see Zager et al., Am J Physiol Renal Physiol. 2014 Jul. 30. Pii.

[2] = tested on: haptoglobin; experiment: Haptoglobin protein expression after SQ injection of myoglobin or myoglobin + PEG; format: in vivo, mice; details: 4 hour time point after SQ injection; control 9.5
Method: Myoglobin+PEG: To a stock solution of 20 mg/ml Mgb in PBS was added 100 mg/ml of PEG-6000; 250 ul. This was administered as a subcutaneous injection in the dorsal neck (250 ul total injection). For combined Mgb/PEG+SnPP, SnPP was added to the above in a concentration of 3 mg/ml.

[3] = Plasma LDH 4 hr after IV test agents (marker of liver, kidney, lung and heart injury); format: in vivo, mice; details: 4 hr IV
[4] = tested on: HK-2 cells; experiment: Myoglobin toxicity in HK-2 cells, MTT assay; format: cell-based; details: 10 mg/mL, 18 hr incubation, vs control incubated cells
Method: Example 3. […] HK-2 cells (a proximal tubule cell line derived from normal human kidney) were incubated in keratinocyte serum free medium either under normal (control) conditions or in the presence of 10 mg/mL horse skeletal muscle myoglobin or nitrited myoglobin (produced by equimolar Na nitrite addition to 10 mg/ml myoglobin). After 18 hr incubations, the severity of cell injury (% cell death) was assessed by MTT assay. Myoglobin induced 40% cell death (40% decrease in MTT cell uptake), compared to control incubated cells. Nitrite binding to myoglobin reduced cell death by 75%. Thus, nitrite binding is able to reduce myoglobin's cytotoxic effects.

[5] = tested on: HO-1; experiment: Renal cortical HO-1 mRNA (RT-PCR) and protein (ELISA) after IV myoglobin, SnPP or both (Example 1); format: in vivo, mice; details: 1 mg myoglobin, 1 μmole SnPP

B1: Myoglobin: Lyophilized horse skeletal muscle (myoglobin) (Sigma Chemicals) used as the test agent (protein, listed as Homo sapiens)
chain: MGLSDGEWQLVLNVWGKVEADIPGHGQEVLIRLFKGHPETLEKFDKFKHLKSEDEMKASEDLKKHGATVLTALGGILKKKGHHEAEIKPLAQSHATKHKIPVKYLEFISECIIQVLQSKHPGDFGADAQGAMNKALELFRKDMASNYKELGFQG
- HO-1 protein expression (by ELISA), Average ([1]; cortex, 4 hr IV, 1 mg myoglobin, 1 μmole SnPP, PBS 13.5, carrier 21.5): 45.4 ng HO-1/mg protein
- HO-1 protein expression (by ELISA) ([1]; cortex, 4 hr IV, 1 mg myoglobin, 1 μmole SnPP, individual mice): 40.7 ng HO-1/mg protein and 40.2 ng HO-1/mg protein and 64.7 ng HO-1/mg protein and 36.0 ng HO-1/mg protein
- HO-1/GAPDH mRNA, Average ([1]; kidney, 4 hr post IV injection, control average 1.93): 3.93
- HO-1/GAPDH mRNA ([1]; kidney, 4 hr post IV injection, individual mice): 7.78 and 2.93 and 2.58 and 2.41
- Haptoglobin protein expression [2]: 32.7 ± 6.3 ng/mg protein
- Plasma LDH, Average ([3]; carrier 4.43): 4.47 Absorbance U LDH/ml
- Plasma LDH ([3]; individual subjects): 4.54 Absorbance U LDH/ml (2×) and 3.90 Absorbance U LDH/ml and 4.91 Absorbance U LDH/ml
- Cell death (decrease in MTT cell uptake) [4]: 40%
- HO-1 mRNA induction (HO-1/GAPDH mRNA) ([5]; overnight (roughly 18 hrs) post IV, individual subjects): 0.71 and 0.53 and 0.51
- HO-1 protein induction ([5]; overnight (roughly 18 hrs) post IV, individual subjects, in ng/mg protein): 50.6 and 34.9 and 24.6
- HO-1 mRNA induction (HO-1/GAPDH mRNA), Average ([5]; overnight post IV, control 0.46): 0.58
- HO-1 protein induction, Average ([5]; overnight post IV, control 20.5): 36.7
